Experiment: label from the status in PepcDB records

Sequence	protein production
SSLLDGLASSPRAPLQSSKARMKKLPKKSQNEKYRLKYLRLRKAAKATVFENAAICDEIARLEEKFLKAKEERRYLLKKLLQLQALTEGEVQAAAPSHSSSLPLTYGVASSVGTIQGAGPISGPSTGAEEPFGKKTKKEKKEKGKENNKLEVLKKTCKKKKMAGGARKLVQPIALDPSGRPVFPIGLGGLTVYSLGEIITDRPGFHDESAIYPVGYCSTRIYASMKCPDQKCLYTCQIKDGGVQPQFEIVPEDDPQNAIVSSSADACHAELLRTISTTMGKLMPNLLPAGADFFGFSHPAIHNLIQSCPGARKCINYQWVKFDVCKPGDGQLPEGLPENDAAMSFEAFQRQIFDEDQNDPLLPGSLDLPELQPAAFVSSYQPMYLTHEPLVDTHLQHLKSPSQGSPIQSSD	not failed
SSQGFIFNLSRPMFQDRRVRQALSLLWDFEWTNRQMMRNMYIRQDSYFSNSELAASQLPTPAELKILEPLRGTVPKEVFDTVFKTPKTDGTGLIRDKQLQALALMKEAGWTPKGDELVNAQGEPFSFTFLNAQSGFERMLLPYKRTLAQIGIHFDIRRIDSAQYLNRVMARDYDMIVTGYPVSTSPGAELYNSFGSKVAMDPGSSNYMALQDPAVDTLIAGLVKADNKQTMTDYAHCLDRVLQWNYYWIPNYYPP	failed
SSQRYMQILQIMPEAIFIHDNGKCNFINDKAIKLLEVKDVKDIIGKNIVDFIHEDYKELAQARIDKTMKTGMPCDFIEERLVTAMGKKIIIEAATTTFSHNNGTFITIIRDMT	failed
STTTTTKKPHVLVIPFPQSGHMVPHLDLTHQILLRGATVTVLVTPKNSSYLDALRSLHSPEHFKTLILPFPSHPCIPSGVESLQQLPLEAIVHMFDALSRLHDPLVDFLSRQPPSDLPDAILGSSFLSPWINKVADAFSIKSISFLPINAHSISVMWAQEDRSFFNDLETATTESYGLVINSFYDLEPEFVETVKTRFLNHHRIWTVGPLLPFKAGVDRGGQSSIPPAKVSAWLDSCPEDNSVVYVGFGSQIRLTAEQTAALAAALEKSSVRFIWAVRDAAKKVNSSDNSVEEDVIPAGFEERVKEKGLVIRGWAPQTMILEHRAVGSYLTHLGWGSVLEGMVGGVMLLAWPMQADHFFNTTLIVDKLRAAVRVGENRDSVPDSDKLARILAESAREDLPERVTLMKLREKAMEAIKEGGSSYKNLDELVAEMCL	failed
SVATQHLFARQKNTQLTLHVAHSFCSQWLMPRLADFHRQHPDVVVKISTTANTVPNASAIADVEIINGYGDWQSEQAVQLTQEN	failed
SVDDDLYFIPKKKAEKKEEVKQEVKVVVPQKQNTTTVYAAPGSTVVVKDVKGKVRDVDEYNRRYTSRDNNFSMENDTLYIEEKPLNERGEWVNGFEGSQDDYEYAMRIVRFRNPRYAIPVSSPLYWDVVYGLPSWDWNVYDDGLYAYVFPTYTNRLWWDWRWNYPYGASWGFSWGWSSPWYYNSWYYPGYWGGGYWGGYWGYHHHHHHHYYPHYSGHGWGGGYWGGGHGWYGSSRRNPGIHAGRYTNSYGSSRPSRNNYVNSYDRNSRNSYVGNSRQNVRNSANSYRTATRNGSSSGRVVSGSDGVNSVRPNRSAIRTRTGATLSPSQAAGVRPGNSYSRPTEGRGSSYTRPSS	failed
SVFPQQTGQLAELQPQDRAGARASWMPMFQRRRRRDTHFPICIFCCGCCHRSKCGMCCKT	failed
SVPKRQRIRKLQIRNIPPHLQWEVLDSLLVQYGVVESCEQVNTDSETAVVNVTYSSKDQARQALDKLNGFQLENFTLKVAYIPDEMAAQ	not failed
SWNQAPKLHYCLDYDCQKAELFVTRLEAVTSNHDGGCDCYVQGSVANRTGSVEAQTALKKRQLHTTWEEGLVLPLAEEELPTATLTLTLRTCDRFSRHSVAGELRLGLDGTSVPLGAAQWGELKT	not failed
SWSDLFRKCTTDEEQEMLQFLIDNKDSEILRAFVSERSILLHEEYLKWESYMTRRAKFHRLAADFAMFLSILTSLIVIFCLVYSMYQLFKTPDEHSAYDPSTRPKPKTQEVKTLKIRTE	not failed
SYLPKHESVTLKNGLQVVSVPLENKTGVIEVDVLYKVGSRNETMGKSGIAHMLEHLNFKSTKNLKAGEFDKIVKRFGGVSNASTSFDITRYFIKTSQANLDKSLELFAETMGSLNLKEDEFLPERQVVAEERRWRTDNSPIGMLYFRFFNTAYVYHPYHWTPIGFMDDIQNWTLKDIKKFHSLYYQPKNAIVLVVGDVNSQKVFELSKKHFESLKN	failed
SYNYNIKRRIAEKAAELVQDNDTIMIESGSTCALLAEVLCQTKRNIKVITNSCFIANYIRQYSSCQIILLGGYYQPNSEVTVGPLLKEMISLFHVNRVFVGTDGFNKDLGFMGKDMMRSEGVRYMADAAEEVVILTDSSKFSKTSLVHQLSLADVNRVITDQALDKQTQELLSASGLVLDFVS	failed
SYVQDYRSPFIASVSDQHGVVYITENKNKTVVIPCLGSISNLNVSLCARYPEKRFVPDGNRISWDSKKGFTIPSYMISYAGMVFCEAKINDESYQSIMYIVVVVGYRIYDVVLSPSHGIELSVGEKLVLNCTARTELNVGIDFNWEYPSSKHQHKKLVNRDLKTQSGSEMKKFLSTLTIDGVTRSDQGLYTCAASSGLMTKKNSTFVRVHEKPFVAFGSG	not failed
TAMRVSPHHPAPTPNPRASLNHSTAFNPQPQSQMQDTRQIQPSPPWSYDQSYQYLGSIASPSVHPATPISPGRASGMTTLSAELSSRLSTAPDLTAFSDPRQFPALPSISDP	failed
TDSTGIDLHEFLVNTLKKNPRDRMMLLKLEQEILEFINDNNNQFKKFPQMTSYHRMLLHRVAAYFGMDHNVDQTGKAVIINKTSNTRIPEQRFSEHIKDEKNTEFQQRFIL	not failed
TEKTALHLRARRNFRDFRGVSRRTGEEWLVTVQDTEAHVPDVHEEVLGVVPITTLGPHNYCVILDPVGPDGKNQLGQKRVVKGEKSFFLQPGEQLEQGIQDVYVLSEQQGLLLRALQPLEEGEDEEKVSHQAGDHWLIRGPLEYVPSAKVEVVEERQAIPLDENEGIYVQDVKTGKVRAVIGSTYMLTQDEVLWEKELPPGVEELLNKGQDPLADRGEKDTAKSLQPLAPRNKTRVVSYRVPHNAAVQVYDYREKRARVVFGPELVSLGPEEQFTVLSLSAGRPKRPHARRALCLLLGPDFFTDVITIETADHARLQLQLAYNWHFEVNDRKDPQETAKLFSVPDFVGDACKAIASRVRGAVASVTFDDFHKNSARIIRTAVFGFETSEAKGPDGMALPRPRDQAVFPQNGLVVSSVDVQSVEPVDQRTRDALQRSVQLAIEITTNSQEAAAKHEAQRLEQEARGRLERQKILDQS	failed
TIADVQSSRDLRNLPINQVGIKDLRFPITLQTAEGIQSTIARLTMTVYLPAEQKGTHMSRFVALMEQHAEALDFAQLRKLTTEMVALLDSRAGKISVSFPFFRKKTAPVSGIRSLLDYDVCLTGEIKDGAYGHSMKVMIPVTSLCPCSKEISQYGAHNQRSHVTVSLTADAEVGIEEVIDYVEAQASCQLYGLLKRPDEKYVTEKAYENPKFVEDMVRDVATSLIADKRIKSFVVESENFESIHNHSAYAYIAYP	not failed
TKDFNLNVSATYNFNKNNIDELDGGKDIYYNSGWGSSAQHPSYDYVLSEGKPVGVIRGFKSAGFYTVDDFDYVDGVYKLKAGIPDISTAATGTYRRPSELQVADGQIAFPGALKLQDVDKSGIVDLDDVVDLGEVQAKHTGGFSLNGNYKNIDFGANFTYQIGGKVYNVATMSQLSGGKETGLGLNKYKDLAGAFQLYDIQNGNLVPVIEPTALKQLNANAKYALPYYEDAPILSDYVEDASYLRLNTLTVGYTLPKAWTTKAYMQKVRIYVTGGNLFCITGYSGLDPEVNSDPDKAKSYPTLGLDWGAYMRARTFTVGLNVEF	failed
TLHKERRIGRLSVLLLLNEAEESTQVEELERDGWKVCLGKVGSMDAHKVVAAIETASKKSGVIQSEGYRESHALYHATMEALHGVTRGEMLLGSLLRTVGLRFAVLRGNPYESEAEGDWIAVSLYGTIGAPIKGLEHETFGVGINHI	not failed
TLRKARVKGLFLLSSGLQFSQSDHHPGGIPLAVIRHMSRQLKRNRTDTLTSFYEQMFSESEKSHGLDQAFLQTLEAGDPFYHWQNESLIAGLDYLANVQLLQGWPTVSVPITWIHGSDDTICPSPASGLFSPSKRLIIVEGAGHVPFYTQDSVVINAWEELLGN	failed
TPEHRAVAREVAAETFVLLKNENHLLPLEEKGKIALIGPMADARNNMCGMWSMTCTPSRHGTLLEGIRSAVGDKAEILYAKGSNVYYDAEMEKGAVGIRPLERGNDQQLLAEALRTAARADVIVAAVGECAEMSGESPSRTNLEIPDAQQDLLKALVKTGKPVVLLLFTGRPLILNWESEHIPSILNVWFGGSETGDAVADVLFGKAVPCGKLTTTFPRSVGQLPLFYNHLNTGRPDPDNRVFNRYASNYLDESNEPLYPFGYGLSYTDF	not failed
TQKKVEVETLEQKIIRADRELAELLEIDEGDEVNYRVVYLRANGEIYAKAISFTPLKRLENSFREDLMRADIPIGKIMRKHNIEARREIRWSRVEEADLALAKELGIADRRVISRNYNIIHRGKVLINITEFFPMERFR	failed
TSAGWVSVAIGPLPLRCWWSPPAGCRRDIDNISIENRAYIVLPEVFGVNAWVRSVADRLAAQGIPALAVPLFARTAPELELAYESCDLAQGRAHKDATTASQILSDVSAAVAWLQQRCPNAAIDLAGFCFGGHAALLAATLPQIRHSFDFYGAGVSRMRPGGGAPSLELLPQVSGQLTCVCGSADPLIPEEDRTTIRSALAAADPSGKRMSYIEIDGVDHGFMCEARGSFDADASALGWQLMLA	failed
TSLEEITKAIMADSQNKVFTEKNIEPLFAAPKTARINIVGQAPGIKAQESRLYWNDKSGDRLREWMGVDYDTFYHSGYFAVIPMDFYYPGKGKSGDLPPRKGFAQKWHQPILDLLPDIQLTILIGNYAQKYYLHQKSSVKLTDTVAHYKKYLPDYFPLVHPSPRNQIWMSRHPWFEAQVVPDLKKIIQQII	not failed
TTLASIGKDIIEDADGIAMPHQWLEGNLPVSAKCTVCDKTCGSVLRLQDWRCLWCKAMVHTSCKESLLTKC	not failed
TVNVTTKKTPPSQPPGNVVWNATDTKVLLNWEQVKAMENESEVTGYKVFYRTSSQNNVQVLNTNKTSAELVLPIKEDYIIEVKATTDGGDGTSSEQIRIPRITS	not failed
TWILTADSPSLLGTVDVVTRYLFEQRCYVTEHHSFDDRLAQRFFIRVEFRAGDGFDEASFRAGLAERVAPFGMRTELTAPGYRSQVAIMVSKADHCLNDLLYRQRIGQLPMDVVAVISNHPDLEPLARWHGIPYHHFPLDPNDKPAQEARVWQVLEESGAELVILARYMQVLSPELCRRLDGWAINIHHSLLPGFKGAKPYHQAYQKGVKLVGATAHYINNDLDEGPIIAQGVETVDHAHYPEDLIAKGRDIECLTLARAVGYHIERRVFLNANRTVVL	failed
TWTDIRYREEGNAGFLSFSFPGGAMSTAQCRRLLDAYRDACTRPTSVLVLGGERDFFSNGIHLNVIEAADDPGAESWANINAIDDLVEAVLTTTDR	failed
VATLNESIEAGLEPGAVALILEAFPIEDRVRLWRALPLELHIDVLTEMRADVRFSIINALSEVELKLTLAKLDNLSLIEWADSLPESIINEALALIEKDELELYDQANEYEDDELGRWAERKIITLPFNITVGTAKQLMERYSYDTPQQVYLINRNKQFRGAVNYYEILRSDSGVRLKTLEIETVTVLDSKMTLPEAVEALEHSALPALPVTDADQTLIGEVDWQFALSTQREIYEARLMAGTGMDEGDDLFAPVLKSSQKRGV	not failed
VAVINSAQDAPSEAPTEVGVKVLSSSEISVHWEHVLEKIVESYQIRYWAAHDKEEAANRVQVTSQEYSARLENLLPDTQYFIEVGACNSAGCGPPSDMIEAFTKKA	not failed
